Assay results taken from PMC11332825, “Residues in the fructose-binding pocket are required for ketohexokinase-A activity” (The Journal of Biological Chemistry, 2024).

Biological target: the molecule itself
Experiment: mass photometry; 100 nM protein diluted in PBS (pH 7.4), room temperature, 60 s acquisition, TwoMP mass photometer; monomer to dimer

| Protein | stoichiometry N |
| --- | --- |
| human ketohexokinase-A (KHK-A), wild type (enzyme, ketohexokinase, splice isozyme A (KHK-A), human; good electron density for residues 3 to 298; theoretical molecular weight of the monomer printed as 34.65 kDa; Cloned into pET-28b(+) by GenScript; also called WT KHK-A; WT; source: E. coli BL21-CodonPlus-RIL, purified (Ni-NTA, Superdex 200 gel filtration)) QILCVGLVVLDVISLVDKYPKEDSEIRCLSQRWQRGGNASNSCTVLSLLGAPCAFMGSMAPGHVADFVLDDLRRYSVDLRYTVFQTTGSVPIATVIINEASGSRTILYYDRSLPDVSATDFEKVDLTQFKWIHIEGRNASEQVKMLQRIDAHNTRQPPEQKIRVSVEVEKPREELFQLFGYGDVVFVSKDVAKHLGFQSAEEALRGLYGRVRKGAVLVCAWAEEGADALGPDGKLLHSDAFPPPRVVDTLGAGDTFNASVIFSLSQGRSVQEALRFGCQVAGKKCGLQGFDGIV | 2 |
| human ketohexokinase-A D15A (enzyme, ketohexokinase, splice isozyme A (KHK-A), human, with D15A; Expressed and purified as described for WT KHK-A; PDB 2HLZ is the wild-type parent; also called KHK-A D15A; source: E. coli BL21-CodonPlus-RIL, purified (Ni-NTA, Superdex 200 gel filtration)) QILCVGLVVLAVISLVDKYPKEDSEIRCLSQRWQRGGNASNSCTVLSLLGAPCAFMGSMAPGHVADFVLDDLRRYSVDLRYTVFQTTGSVPIATVIINEASGSRTILYYDRSLPDVSATDFEKVDLTQFKWIHIEGRNASEQVKMLQRIDAHNTRQPPEQKIRVSVEVEKPREELFQLFGYGDVVFVSKDVAKHLGFQSAEEALRGLYGRVRKGAVLVCAWAEEGADALGPDGKLLHSDAFPPPRVVDTLGAGDTFNASVIFSLSQGRSVQEALRFGCQVAGKKCGLQGFDGIV | 2 |
| human ketohexokinase-A N42A (enzyme, ketohexokinase, splice isozyme A (KHK-A), human, with N42A; Expressed and purified as described for WT KHK-A; PDB 2HLZ is the wild-type parent; also called KHK-A N42A; source: E. coli BL21-CodonPlus-RIL, purified (Ni-NTA, Superdex 200 gel filtration)) QILCVGLVVLDVISLVDKYPKEDSEIRCLSQRWQRGGAASNSCTVLSLLGAPCAFMGSMAPGHVADFVLDDLRRYSVDLRYTVFQTTGSVPIATVIINEASGSRTILYYDRSLPDVSATDFEKVDLTQFKWIHIEGRNASEQVKMLQRIDAHNTRQPPEQKIRVSVEVEKPREELFQLFGYGDVVFVSKDVAKHLGFQSAEEALRGLYGRVRKGAVLVCAWAEEGADALGPDGKLLHSDAFPPPRVVDTLGAGDTFNASVIFSLSQGRSVQEALRFGCQVAGKKCGLQGFDGIV | 2 |
| human ketohexokinase-A N42K (enzyme, ketohexokinase, splice isozyme A (KHK-A), human, with N42K; Expressed and purified as described for WT KHK-A; PDB 2HLZ is the wild-type parent; source: E. coli BL21-CodonPlus-RIL, purified (Ni-NTA, Superdex 200 gel filtration)) QILCVGLVVLDVISLVDKYPKEDSEIRCLSQRWQRGGKASNSCTVLSLLGAPCAFMGSMAPGHVADFVLDDLRRYSVDLRYTVFQTTGSVPIATVIINEASGSRTILYYDRSLPDVSATDFEKVDLTQFKWIHIEGRNASEQVKMLQRIDAHNTRQPPEQKIRVSVEVEKPREELFQLFGYGDVVFVSKDVAKHLGFQSAEEALRGLYGRVRKGAVLVCAWAEEGADALGPDGKLLHSDAFPPPRVVDTLGAGDTFNASVIFSLSQGRSVQEALRFGCQVAGKKCGLQGFDGIV | 2 |
| human ketohexokinase-A N45A (enzyme, ketohexokinase, splice isozyme A (KHK-A), human, with N45A; Expressed and purified as described for WT KHK-A; PDB 2HLZ is the wild-type parent; source: E. coli BL21-CodonPlus-RIL, purified (Ni-NTA, Superdex 200 gel filtration)) QILCVGLVVLDVISLVDKYPKEDSEIRCLSQRWQRGGNASASCTVLSLLGAPCAFMGSMAPGHVADFVLDDLRRYSVDLRYTVFQTTGSVPIATVIINEASGSRTILYYDRSLPDVSATDFEKVDLTQFKWIHIEGRNASEQVKMLQRIDAHNTRQPPEQKIRVSVEVEKPREELFQLFGYGDVVFVSKDVAKHLGFQSAEEALRGLYGRVRKGAVLVCAWAEEGADALGPDGKLLHSDAFPPPRVVDTLGAGDTFNASVIFSLSQGRSVQEALRFGCQVAGKKCGLQGFDGIV | 2 |
| human ketohexokinase-A R141E (enzyme, ketohexokinase, splice isozyme A (KHK-A), human, with R141E; Results and legends print R141E; the abstract and the discussion speak of R141A / alanine at R141; PDB 2HLZ is the wild-type parent; source: E. coli BL21-CodonPlus-RIL, purified (Ni-NTA, Superdex 200 gel filtration)) QILCVGLVVLDVISLVDKYPKEDSEIRCLSQRWQRGGNASNSCTVLSLLGAPCAFMGSMAPGHVADFVLDDLRRYSVDLRYTVFQTTGSVPIATVIINEASGSRTILYYDRSLPDVSATDFEKVDLTQFKWIHIEGENASEQVKMLQRIDAHNTRQPPEQKIRVSVEVEKPREELFQLFGYGDVVFVSKDVAKHLGFQSAEEALRGLYGRVRKGAVLVCAWAEEGADALGPDGKLLHSDAFPPPRVVDTLGAGDTFNASVIFSLSQGRSVQEALRFGCQVAGKKCGLQGFDGIV | 2 |
| human ketohexokinase-A K174A (enzyme, ketohexokinase, splice isozyme A (KHK-A), human, with K174A; Expressed and purified as described for WT KHK-A; PDB 2HLZ is the wild-type parent; source: E. coli BL21-CodonPlus-RIL, purified (Ni-NTA, Superdex 200 gel filtration)) QILCVGLVVLDVISLVDKYPKEDSEIRCLSQRWQRGGNASNSCTVLSLLGAPCAFMGSMAPGHVADFVLDDLRRYSVDLRYTVFQTTGSVPIATVIINEASGSRTILYYDRSLPDVSATDFEKVDLTQFKWIHIEGRNASEQVKMLQRIDAHNTRQPPEQKIRVSVEVEAPREELFQLFGYGDVVFVSKDVAKHLGFQSAEEALRGLYGRVRKGAVLVCAWAEEGADALGPDGKLLHSDAFPPPRVVDTLGAGDTFNASVIFSLSQGRSVQEALRFGCQVAGKKCGLQGFDGIV | 2 |
| human ketohexokinase-A R141E/K174A double mutant (enzyme, ketohexokinase, splice isozyme A (KHK-A), human, with R141E and K174A; Expressed and purified as described for WT KHK-A; PDB 2HLZ is the wild-type parent; source: E. coli BL21-CodonPlus-RIL, purified (Ni-NTA, Superdex 200 gel filtration)) QILCVGLVVLDVISLVDKYPKEDSEIRCLSQRWQRGGNASNSCTVLSLLGAPCAFMGSMAPGHVADFVLDDLRRYSVDLRYTVFQTTGSVPIATVIINEASGSRTILYYDRSLPDVSATDFEKVDLTQFKWIHIEGENASEQVKMLQRIDAHNTRQPPEQKIRVSVEVEAPREELFQLFGYGDVVFVSKDVAKHLGFQSAEEALRGLYGRVRKGAVLVCAWAEEGADALGPDGKLLHSDAFPPPRVVDTLGAGDTFNASVIFSLSQGRSVQEALRFGCQVAGKKCGLQGFDGIV | 2 |
